Data as given in the DeepSol protein solubility set.

Experiment: soluble on expression in E. coli; label from the status in PepcDB or PDB records

| Sequence | soluble on expression in E. coli |
| --- | --- |
| MFSPSKFRKQVNESESVSNCESTTSNSRRILDQHAGLPISSAFRTEASDIGHHFSTKMYFKILSPNNVFALMGDNEFKTSFKIFTIFEPTSTPNGKIQSLITISYKINNVLFKMEKEIFIEKVNIFSLELHIFNFQSTNRSNPASESIHQLDLSSEALVTSTLNIRGNKITTTLRPRTSPYKRAGDASMSREDLRSPDSVSTFTTVLHVFHKVFQVAATYTIRENRSERQTKVKLESLERRLKANEKARKEIEAEAEKWKDRATRNSKRLPELELELAETVQAKEEWQVKSQEMEIQNKQLVEELNEVQKKLEEIENSQKTFHQKVVSTLNLDEEYFQNPDEEQDGSLSQFNMDVLEQEIVKYQEKCISLKQENEILKEKLQQLSSSLTVNQNHVSTLMDHLEINKEQSREIQGICKKEIAIRQDHENRINHDVTLLNSLINEQKMELEMLKAEIRCLRSYSQEMSQSNKNNIILLKSAETERKSLLETLTVLLNSEEEATENNVKRTIRDLVRERDTEQTKRFEAEKAASNAEGVLLEQAKQQRNALFRARVSEEEYSKSMEKIEELEQELLASDLERKNLEHKIASLENCISKVSQLLNVNVGGVFDAIFDRIEELIAQESVYRVVVNENRLISENIFRGLQSVRKDFQSGKSGGGSDKKQPASPVAAAAKIIQERHTLKTIDKMDKLNKDLLATMTIETLKAADIEKTNLKKRMNEQDARIRQLEREKKEGERIRSIIAKWEKRNIPKTEKSSPMKKVPPIENFRAKSQTSITGLSPVL | not soluble |
| MFSSAVRALCRTVPTVATRQLSTSRALLSLRPLGPKNTVPAFKGTAVVDGDFKVISDQDYKGKWLVMFFYPLDFTFVCPTEIIAYGDRANEFRSLGAEVVACSCDSHFSHLAWVNTPRKDGGLGDMDIPLLADFNKKIADSFGVLDKESGLSYRGLFLIDPSGTVRHTTCNDLPVGRSVDETLRVLKAFQFSDKHGEVCPADWHEDSPTIKPGVATSKEYFNKVNK | not soluble |
| MFSVTLLVVSCGILAAAYPYSQQYGNYDQQYSQQSQYYPSSGQQGYRGGYQSNPGMQGGYQGNGQDSYQDFQGYQGYQRGQGGQRGYQGYQSNQRSQGSYPERYDSSMYSPVMDLTNYYGSQGTPQYYGYPSSASYQMTPYYQNQNQGYMQQQQYNTPSQSSWSPMYYGNGYQSQQSQQQQSSMGIRPYQSSWGQTQGTNTWGSPYQFTKVDAQVTDDDNVDGSGMDSSEQTSSPASTDDSQMTSNDD | not soluble |
| MFTGLVEETGEILKVEEGPFLRVYIGARKVLKDLKVGDSVAVDGACLTAVTVEEGGFWVELAQETLRRTAPTWRVGHRPNLERALKVGDRLGGHFVTGHVDGVARLWEVREAPGAKDFYFLPPKALAPYIAEKGSVALNGVSLTVAGLTGEAFWVTLIPHTLEVTNLGRLRVGDGVNLEVDLIARYVARLLGRA | soluble |
| MFTQLALLSVLAVFVAQATMNLPSQEQYNAELKSAGMSQAGIDGLNVLSQKFVSQYPVVQANKEAADKFLAEYTEEAQNYVKSMSPEDQKIYAESLKKYGLA | not soluble |
| MFTRQAGHFVEGSKAGRSRGRLCLSQALRVAVRGAFVSLWFAAGAGDRERNKGDKGAQTGAGLSQEAEDVDVSRARRVTDAPQGTLCGTGNRNSGSQSARAVGVAHLGEAFRVGVEQAISSCPEEVHGRHGLSMEIMWAQMDVALRSPGRGLLAGAGALCMTLAESSCPDYERGRRACLTLHRHPTPHCSTWGLPLRVAGSWLTVVTVEALGRWRMGVRRTGQVGPTMHPPPVSGASPLLLHHLLLLLLIIILTC | not soluble |
| MFTYKIGLSTSEHDRFVIDSPQTNLLQSSSWAKIKDSWGNDRLGFYQDDKLVAVASVLIQPLPLGFSMIYIPRGPIMDYQDKELLAFVITSLKKYAKTKRALFVKFDPSLFVTKNLISQEVNINEDTLSIAKDIQALGVEWTGLTEDMAENIQPRFQANIYKEDFTEEQLSKST | not soluble |
| MFVDQVKVYVKGGDGGNGMVAFRREKYVPKGGPAGGDGGKGGDVVFEVDEGLRTLMDFRYKKHFKAIRGEHGMSKNQHGRNADDMVIKVPPGTVVTDDDTKQVIADLTEHGQRAVIARGGRGGRGNSRFATPANPAPQLSENGEPGKERYIVLELKVLADVGLVGFPSVGKSTLLSVVSSAKPKIADYHFTTLVPNLGMVETDDGRSFVMADLPGLIEGAHQGVGLGHQFLRHIERTRVIVHVIDMSGLEGRDPYDDYLTINQELSEYNLRLTERPQIIVANKMDMPEAAENLEAFKEKLTDDYPVFPISAVTREGLRELLFEVANQLENTPEFPLYDEEEL | soluble |
| MGAGESSMALEKHLFDLKFAAKQLEKNAQRCEKDEKVEKDKLTAAIKKGNKEVAQVHAENAIRKKNEAVNYIKMAARIDAVAARVQTAATQKRVTASMSGVVKAMESAMKSMNLEKVQQLMDRFERDFEDLDVTTKTMEKTMDGTTVLNAPKSQVDALIAEAADKAGIELNQELPSNVPTALPTGTQAVSEDKDLTERLAALRNM | not soluble |
| MGALAELAGDEKNGEGSRTFVFTNEGHTLGNALKTIIARYPEVDFCGYTIPHPTEQKLHFRIQSRRDRAIDILKRGLEDLEGLCDHTIVTFEKEMAEFNAMKVENLEHHHHHH | not soluble |
| MGALIPSSTLFNIFDFNPKKVRIAFIAVGLRGQTHVENMARRDDVEIVAFADPDPYMVGRAQEILKKNGKKPAKVFGNGNDDYKNMLKDKNIDAVFVSSPWEWHHEHGVAAMKAGKIVGMEVSGAITLEECWDYVKVSEQTGVPLMALENVCYRRDVMAILNMVRKGMFGELVHGTGGYQHDLRPVLFNSGINGKNGDGVEFGEKAFSEAKWRTNHYKNRNGELYPTHGVGPLHTMMDINRGNRLLRLSSFASKARGLHKYIVDKGGESHPNAKVEWKQGDIVTTQIQCHNGETIVLTHDTSLQRPYNLGFKVQGTEGLWEDFGWGEAAQGFIYFEKIMNHSHRWDSSEKWIKEYDHPMWKKHEQKAVGAGHGGMDYFLDNTFVECIKRNEAFPLDVYDLATWYSITPLSEKSIAENGAVQEIPDFTNGKWKNAKNTFAINDDY | soluble |
| MGAPLADILHALVLKIEDQRLGTHASVLLLSEDGKRVLTGAAPHLPDSYNQVIHGVEIGPEVGSCGTAAYTGQRVIVEDIEHHPYWALYKSFALVHGLRACWSEPIKDTQGKVLGTFAMYYKEIKSPTVADLTLIAEAARLASLAIERSRSLEFQRLAVKILEHHHHHH | soluble |
| MGARKASAGASRAATAGVRISHPQRLIDPSIQASKLELAEFHARYADLLLRDLRERPVSLVRGPDGIGGELFFQKHAARLKIPGIVQLDPALDPGHPPLLQIRSAEALVGAVQMGSIEFHTWNASLANLERPDRFVLDLDPDPALPWKRMLEATQLSLTLLDELGLRAFLKTSGGKGMHLLVPLERRHGWDEVKDFAQAISQHLARLMPERFSAVSGPRNRVGKIFVDYLRNSRGASTVAAYSVRAREGLPVSVPVFREELDSLQGANQWNLRSLPQRLDELAGDDPWADYAGTRQRISAAMRRQLGRG | soluble |
| MGCRATQRESVGFADKIRYTERRFISVFGVPLLIQLICQAPQRAQELEQIAARWQLQASDDSPFALVLSEERLELRKLDEPKLGAIYVDWVEGAVAHRRKFGGGKGQSIAKAAGLNKGVTPVVLDATAGLGRDAFVLASLGCRVQMVERHPVVAALLEDGLQRAKQDDEIGAWVSERISLLHASSHDALQQLASDPNFTSPDVVYLDPMYPHPENKKKTALVKKEMRVFQSLVGADNDADALLEPALQLAQKRVVVKRPDYAPWLGNRKPSMAMETKKNRFDVYVIAAMSGE | soluble |
| MGDNWRYEVKYDGFRTILFWTKETIRLESRNERLLTDQFPEIHDFCQRISNKVEAWLPITIDGELVHLVSPYRAHFAPIQTRSFMRKHETIAASSIKTPATLLAFDILELKGKTLVDLPYDERKKQLKALLKAIDVPLEHHHHHH | not soluble |
| MGDQLDAVEVQAISPDGEITVKLGTGDAVDVQFKSDEYFKSVPHETLSHQLGRALTLLAVGRIRKRHQILEAEGFEVYGEDDAHWDKRVRVFREKRAQVKAAGRSPKRHIAIATVGLRDFKVRFERDVTRRLSRSEFSGEFGGAVAAVISEYSAQMTQLKTAMFT | not soluble |
| MGDVIKVLDAQVRESLSGLPELHINFRARIILNPEDPRVDSIPPLEEVRIATYTRKKIGDIEPGDRFIEIRGTIAKVYRVLTYDACPECKKKVDYDPGTGVWICPEHGEVEPIKMTILDFGLDDGTGYIRVTLFGDDAEELLGVSSEEIAEKIKELENSGLTTKEAARKLAEEEFYKIIGKEIVVRGNVIEDRFLGLILRASSWEEVDYRKEIENIKEELEKLGVMLEHHHHHH | soluble |
| MGDWIIKLEDVSAGYGKLQTLFDVSLEIPRGLITVIVGPNGAGKSTLLKTMFGFTTVYKGRVLFENTDVTHMPPHDRAKIGMTFIFQLENIFRELTVYENLRLAGYDLPEDVFRDRLEEVFSMFPRLKERLGQKAGTLSGGERQMLAMAIGIMRKPKVFLIDEPTAGLSPKLAKEVLSYVRILNKEGYTVVLVEQNVKASLEIGDKGVLVVNGRIAFDGPAEELLARKDLAKMYLGV | soluble |
| MGDWMIENKVRDVVKKLKPYVPGKSKEEIARAYGIKPEDIIKLGSNENPWGPSPKIKEKILDEIDKIHQYPEPVNPILMKELSKFLNVDEENIIVGGDGADEIIDTIFRTFVDDGDEVIIPIPTFTQYRVSATIHNAKIKYAKYDKEKDFKLNVESVLNNITDKTKVIFLCTPNNPTGNIIENRDVERVINETDALVVIDHAYIEYAKKEYDWTQKAPEYDNVIVLRTFSKVFGLAGMRVGYGVANKKIIDYMMRVKPIFSLTRLSQVCAITALRDREFFERCVRDGIKSREMLYNGLKKFKDIKVYPSEANYLLVELKTMKAKEFCEELLKRGVIVRDCTSFDGLGDNYVRVSIGTFEEVERFLKILEEIIS | not soluble |
| MGEAPAVLVDHPENGHSNGVCVKSEPENTEITVDVGDRIFLIGGTHERNNFSIGVQIYDKISNNWFSPIVLGTGPKPSKGYSAFVLEQGRILVIKKGSPRNDSIWFLEVDSPYVREQKKLLRKEVVAWSKGVRGNAEKPIVISGPSGVGKGTLISMLMKEFPSMFGFSVSHTTRSPRSMEMDGVHYHFADKKVMEKEIKDGKFLEFASVHGNLYGTSIESVEAVTDSGKRCILDIDVQGARSVRASSLDAIFIFVCPPSMKELEDRLRARGTETEEQIQKRLRNAEAEIKEGISSGIFGLILYNDNLEECYKKLKNLLGLDGLAHVNGVEIEGINLPIEYAVSKMEDKIIIQETGKETRNKIVVDISSLNGGAPGRTRGILVDAIKF | soluble |
| MGEENQPNYTISQENWSLHRKGYDDQQRHQEKVQEAIKNNLPDLVTEESIVMSNGKDVVKIPIRSLDEYKIRYNYDKNKHVGQGNGDSKVGDVVARDGSGGQKQKGPGKGQGAGDAAGEDYYEAEVSILELEQAFFRELELPNLKRKEMDENRIEHVEFNDIRKTGLWGNIDKKRTMISAYKRNAMGGKASFHPIHQEDLKFRTWNEVLKPDSKAVVLAMMDTSGSMGIWEKYMARSFFFWMTRFLRTKYETVDIEFIAHHTEAKVVTEEEFFSKGESGGTICSSVYKKALELIDNKYSPDRYNIYPFHFSDGDNLTSDNARCVKLVEELMKKCNMFGYGEVNQYNRHSTLMSAYKNIKDENFRYYILKQKADVFHAMKSFFREESGEKMALEHHHHHH | soluble |
| MGEIIKESDKRVALKLPANVTEIDDRAFLGCTRLESIDLSACTSLTAIKLAAFKGCTSLKAVQLPQSLTTIGHFAFEGCTALKEVELPQNLTVIGTDAFKGCSIETLVIHCDIKGTIIENFTKKDEVNKNVKKLTLGKGVTTIGNYAFYIIGYSKLAAVDFSACTALTEIGENAFAYSKLTNVNLSACIKLTEIGKSAFSNCTDLTNVDLSGCTALTTIGEQAFNSCYEATVKLPTGITAIGNEAFGENDEDFLCKNVLIPRSHAATIKPLVTASDYPEDRIREY | not soluble |
